Assay [1] has as its target T1, E. coli β-clamp (bacterial DNA sliding clamp), His6-tagged (E. coli, UniProt P0A988 1-366). The experiment in a line: ITC. (Isothermal titration calorimetry measures the heat released or taken up as one component is titrated into another.)
For assay [2], the target named is T1, E. coli β-clamp (bacterial DNA sliding …). The experiment in a line: NMR titration.

No end group written: not given here.

T1 sequence (P0A988 whole entry): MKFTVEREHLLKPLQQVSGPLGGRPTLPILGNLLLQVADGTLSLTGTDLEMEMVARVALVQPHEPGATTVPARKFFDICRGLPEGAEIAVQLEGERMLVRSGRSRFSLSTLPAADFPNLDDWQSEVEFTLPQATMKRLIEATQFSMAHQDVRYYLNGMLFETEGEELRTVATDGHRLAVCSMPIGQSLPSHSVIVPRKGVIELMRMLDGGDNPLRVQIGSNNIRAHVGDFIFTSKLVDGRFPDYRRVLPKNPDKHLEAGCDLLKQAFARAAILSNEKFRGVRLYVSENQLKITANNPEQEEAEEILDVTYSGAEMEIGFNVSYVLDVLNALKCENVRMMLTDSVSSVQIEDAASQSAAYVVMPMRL

B1: pol III* peptide, 16-mer of the polymerase III α subunit C-terminus with an N-terminal Trp (DWRGLIGSEQVELEFD) (peptide)
peptide: DWRGLIGSEQVELEFD
With B1, the binding result in assay [1] is listed as “binds”.

B2: MutS* peptide, 16-mer with the clamp binding motif of MutS and an N-terminal Trp (GWATQVDGTQMSLLSV-NH2) (peptide)
peptide: GWATQVDGTQMSLLSV
modifications: not fully specified (C-terminus); printed as GWATQVDGTQMSLLSV-NH2
For B2, the binding result in assay [2] is “binds”.

B3: pol IV* peptide, 15-mer of the polymerase IV C-terminus with an N-terminal Trp (GWLDPQMERQLVLGL) (peptide)
peptide: GWLDPQMERQLVLGL
With B3, in assay [2], the binding result is listed as “binds”.

B4: MutL* peptide, 16-mer with the clamp binding motif of MutL and an N-terminal Trp (GWGEAPVCAQPLLIPL-NH2) (peptide)
peptide: GWGEAPVCAQPLLIPL
modifications: not fully specified (C-terminus); printed as GWGEAPVCAQPLLIPL-NH2
On to B4, for which the binding result in assay [2] is on record as “binds”.

(Values after paper doi:10.1101/2024.06.26.600769 (bioRxiv, 2024).)
